Data: the RNAGym collection of RNA variant scans (doi:10.7554/elife.80360)

B1: CPEB3 Ribozyme (parent)
chain: GGGGGCCACAGCAGAAGCGUUCACGUCGCGGCCCCUGUCAGAUUCUGGUGAAUCUGCGAAUUCUGCUGU

Variants of: B1
Experiment: self-cleavage, relative activity (ratio to wild type); higher = more cleavage; co-transcriptional
Variant C39U U55A has a self-cleavage of 0.752. In the case of C39U U55C, the self-cleavage is reported as 0.752. C39U U61G showed a self-cleavage of 0.577. Variant C39U U64A has a self-cleavage of 0.616. In the case of C39U U69A, the self-cleavage is reported as 0.94. Work on C39U U69G yielded a self-cleavage of 1.05. A40C showed a self-cleavage of 0.702. Work on A40C A51C yielded a self-cleavage of 0.359. With A40C A52C the self-cleavage was 0.347. A40C A52U showed a self-cleavage of 0.365. Work on A40C A59U yielded a self-cleavage of 0.381. Work on A40C A60C yielded a self-cleavage of 0.34. Work on A40C A60G yielded a self-cleavage of 0.225. With A40C C54G the self-cleavage was 0.323. Variant A40C C57U has a self-cleavage of 0.287. Work on A40C C63A yielded a self-cleavage of 0.321. For A40C G41U, the self-cleavage was 0.22. A40C G47C gave a self-cleavage of 0.794. For A40C G48A, the self-cleavage was 0.882. Work on A40C G48C yielded a self-cleavage of 0.716. For A40C G50A, the self-cleavage was 0.423. With A40C G50C the self-cleavage was 0.424. For A40C G58A, the self-cleavage was 0.659. Work on A40C G65U yielded a self-cleavage of 0.354. A40C G68C showed a self-cleavage of 0.749. Variant A40C G68U has a self-cleavage of 0.806. For A40C U44A, the self-cleavage was 0.417. A40C U44C showed a self-cleavage of 0.368. A40C U44G gave a self-cleavage of 0.419. In the case of A40C U55G, the self-cleavage is reported as 0.951. For A40C U64C, the self-cleavage was 0.357. With A40C U64G the self-cleavage was 0.403. With A40C U67C the self-cleavage was 0.539. A40C U69G showed a self-cleavage of 0.875. For A40G, the self-cleavage was 0.97. For A40G A42C, the self-cleavage was 0.81. Work on A40G A51G yielded a self-cleavage of 0.979. With A40G A52C the self-cleavage was 0.87. In the case of A40G A52G, the self-cleavage is reported as 0.903. Work on A40G A52U yielded a self-cleavage of 0.851. With A40G A59U the self-cleavage was 0.691. A40G C45G gave a self-cleavage of 0.942. In the case of A40G C54A, the self-cleavage is reported as 0.701. A40G C54G gave a self-cleavage of 0.656. For A40G C57A, the self-cleavage was 0.34. Variant A40G C57U has a self-cleavage of 0.311. With A40G C66G the self-cleavage was 0.67. Work on A40G G47C yielded a self-cleavage of 1. A40G G56C gave a self-cleavage of 0.779. Work on A40G G65U yielded a self-cleavage of 0.519. For A40G G68U, the self-cleavage was 0.987. For A40G U44A, the self-cleavage was 0.907. A40G U55A gave a self-cleavage of 0.858. Variant A40G U55C has a self-cleavage of 1. Variant A40G U55G has a self-cleavage of 0.757. In the case of A40G U62A, the self-cleavage is reported as 0.837. In the case of A40G U62G, the self-cleavage is reported as 0.858. A40G U64C gave a self-cleavage of 0.737. Work on A40G U64G yielded a self-cleavage of 0.796. A40G U67A showed a self-cleavage of 0.941. Work on A40U yielded a self-cleavage of 0.901. A40U A52C gave a self-cleavage of 0.561. With A40U A52U the self-cleavage was 0.477. For A40U A59C, the self-cleavage was 0.285. With A40U A60G the self-cleavage was 0.47. A40U C54A showed a self-cleavage of 0.435. Work on A40U C57A yielded a self-cleavage of 0.333. In the case of A40U C57U, the self-cleavage is reported as 0.302. A40U C63A gave a self-cleavage of 0.364. A40U G41C gave a self-cleavage of 0.592. For A40U G41U, the self-cleavage was 0.664. For A40U G47A, the self-cleavage was 0.885. With A40U G47U the self-cleavage was 0.912. A40U G48A showed a self-cleavage of 0.977. Variant A40U G50U has a self-cleavage of 0.749. A40U G56C gave a self-cleavage of 0.475. With A40U G56U the self-cleavage was 0.552. With A40U G58A the self-cleavage was 0.797. Variant A40U G58C has a self-cleavage of 0.881. Work on A40U G58U yielded a self-cleavage of 0.931. A40U U43G gave a self-cleavage of 0.299. Work on A40U U44A yielded a self-cleavage of 0.609. With A40U U53A the self-cleavage was 0.302. Variant A40U U53G has a self-cleavage of 0.378. A40U U61A showed a self-cleavage of 0.5. Variant A40U U61C has a self-cleavage of 0.258. Variant A40U U64C has a self-cleavage of 0.388. With G41A the self-cleavage was 0.906. Variant G41A A42U has a self-cleavage of 0.49. With G41A A51C the self-cleavage was 0.483. G41A A51G showed a self-cleavage of 0.797. G41A A52C gave a self-cleavage of 0.388. With G41A A59G the self-cleavage was 0.774. In the case of G41A A59U, the self-cleavage is reported as 0.332. G41A A60G gave a self-cleavage of 0.464. G41A C45A gave a self-cleavage of 0.37. G41A C45G showed a self-cleavage of 0.537. G41A C54A gave a self-cleavage of 0.904. For G41A C63A, the self-cleavage was 0.329. For G41A C66A, the self-cleavage was 0.388. With G41A C66U the self-cleavage was 0.756. G41A G47A showed a self-cleavage of 0.979. For G41A G47U, the self-cleavage was 0.98. For G41A G48C, the self-cleavage was 0.876. In the case of G41A G48U, the self-cleavage is reported as 0.987. In the case of G41A G50C, the self-cleavage is reported as 0.453. For G41A G50U, the self-cleavage was 0.686. G41A G56A gave a self-cleavage of 0.77. G41A G58A showed a self-cleavage of 0.906. G41A G58C showed a self-cleavage of 0.86. In the case of G41A G58U, the self-cleavage is reported as 0.921. Work on G41A G65A yielded a self-cleavage of 0.482. Work on G41A G68A yielded a self-cleavage of 0.979. G41A U43G showed a self-cleavage of 0.241. Variant G41A U44A has a self-cleavage of 0.302. With G41A U44C the self-cleavage was 0.413. Variant G41A U46G has a self-cleavage of 0.904. With G41A U49A the self-cleavage was 0.885. Variant G41A U53C has a self-cleavage of 0.318. Work on G41A U55C yielded a self-cleavage of 0.491. In the case of G41A U61C, the self-cleavage is reported as 0.257. Work on G41A U64A yielded a self-cleavage of 0.419. G41A U67C gave a self-cleavage of 0.818. In the case of G41C, the self-cleavage is reported as 0.891. In the case of G41C A42G, the self-cleavage is reported as 0.754. G41C A51G showed a self-cleavage of 0.687. G41C A52G showed a self-cleavage of 0.609. Work on G41C A52U yielded a self-cleavage of 0.415. Work on G41C A59U yielded a self-cleavage of 0.271. In the case of G41C C54A, the self-cleavage is reported as 0.931. Work on G41C C54G yielded a self-cleavage of 0.98. In the case of G41C C54U, the self-cleavage is reported as 0.906. For G41C C57A, the self-cleavage was 0.285. Work on G41C C57G yielded a self-cleavage of 0.249. Variant G41C C63G has a self-cleavage of 0.382. Work on G41C C63U yielded a self-cleavage of 0.685. With G41C C66A the self-cleavage was 0.285. G41C C66U gave a self-cleavage of 0.75. G41C G47C showed a self-cleavage of 0.939. In the case of G41C G47U, the self-cleavage is reported as 0.935. G41C G48A showed a self-cleavage of 0.949. With G41C G50A the self-cleavage was 0.693. In the case of G41C G50C, the self-cleavage is reported as 0.325. G41C G50U showed a self-cleavage of 0.698. With G41C G56C the self-cleavage was 0.417. G41C G58C gave a self-cleavage of 0.85. With G41C G58U the self-cleavage was 0.962. In the case of G41C G65C, the self-cleavage is reported as 0.316. With G41C U46C the self-cleavage was 0.63. G41C U46G showed a self-cleavage of 0.855. Work on G41C U49G yielded a self-cleavage of 0.899. Variant G41C U53G has a self-cleavage of 0.552. In the case of G41C U55A, the self-cleavage is reported as 0.549. For G41C U55G, the self-cleavage was 0.369. Work on G41C U61A yielded a self-cleavage of 0.484. With G41C U62A the self-cleavage was 0.294. In the case of G41C U64C, the self-cleavage is reported as 0.394. With G41C U67C the self-cleavage was 0.776. In the case of G41C U69A, the self-cleavage is reported as 0.932. With G41U the self-cleavage was 0.928. For G41U A42C, the self-cleavage was 0.389. For G41U A42G, the self-cleavage was 0.777. G41U A42U gave a self-cleavage of 0.862. G41U A51C showed a self-cleavage of 0.588. G41U A52U gave a self-cleavage of 0.526. Work on G41U A59U yielded a self-cleavage of 0.453. G41U A60C showed a self-cleavage of 0.414.
